Experimental data reported in US20200131496A1 (REGENTS OF THE UNIVERSITY OF MINNESOTA, published 2020).
Changes are numbered by the printed parent chain. In names and notes the source's numbering stands.

Legend:
[1] = biological target: the molecule itself; experiment: ion exchange and size-exclusion chromatography; self-association, RNA-mediated
[2] = biological target: the molecule itself; experiment: size-exclusion chromatography (self-association)
[3] = biological target: the molecule itself; experiment: size-exclusion chromatography; self-association, RNA-mediated

B1: His-tagged mCherry(1-232)-3×Ala linker-A3H-HapII(1-183), wild-type (enzyme)
chain: AAAMALLTAETFRLQFNNKRRLRRPYYPRKALLCYQLTPQNGSTPTRGYFENKKKCHAEICFINEIKSMGLDETQCYQVTCYLTWSPCSSCAWELVDFIKAHDHLNLRIFASRLYYHWCKPQQDGLRLLCGSQVPVEVMGFPEFADCWENFVDHEKPLSFNPYKMLEELDKNSRAIKRRLDRIKQS
notes: range 1-232; Purified from E. coli with RNase A treatment; also called wild-type mCherry-A3H; mCherry-A3Hwt; not shown: N-terminal His tag from the pRSFDuet-1 vector and engineered HRV 3C protease site upstream of mCherry; mCherry residues 1-232, amplified from pRSETB-mCherry (Shaner et al. 2004)
binding result [1]: binds

B2: mCherry-A3H-E56A-W115A-R175/6E (enzyme)
chain: B1 chain with E59A, W118A, R178E, R179E
notes: range 1-232; E56A added to prevent E. coli toxicity; preparation lacks RNA; also called W115A/R175/6E with E56A; not shown: N-terminal His tag from the pRSFDuet-1 vector and HRV 3C protease site; mCherry residues 1-232, amplified from pRSETB-mCherry
binding result [2]: no binding

B3: mCherry-A3H-E56A-K52E (enzyme)
chain: B1 chain with K55E, E59A
notes: range 1-232; Used in size-exclusion chromatography and in the second crystal structure (6BBO); also called mCherry-A3H-K52E-E56A; A3H-K52E-E56A; not shown: N-terminal His tag from the pRSFDuet-1 vector and HRV 3C protease site; crystallized by similar met; mCherry residues 1-232, amplified from pRSETB-mCherry
binding result [3]: binds

B4: mCherry-A3H-K52E (enzyme)
chain: B1 chain with K55E
notes: range 1-232; His tag present in size-exclusion chromatography; Crystal holds two A3H monomers bridged by duplex RNA; also called mCherry-K52E; pdb 6BOB; not shown: N-terminal His tag from the pRSFDuet-1 vector and HRV 3C protease site; tag removed with 3C proteas; mCherry residues 1-232, amplified from pRSETB-mCherry
binding result [3]: binds

B5: mCherry-A3H-E56A (enzyme)
chain: B1 chain with E59A
notes: range 1-232; Catalytic mutant; also called E56A catalytic mutant; not shown: N-terminal His tag from the pRSFDuet-1 vector and HRV 3C protease site; mCherry residues 1-232, amplified from pRSETB-mCherry
binding result [3]: binds
